This is an account of results in PMC3873461, “The CD8-Derived Chemokine XCL1/Lymphotactin Is a Conformation-Dependent, Broad-Spectrum Inhibitor of HIV-1” (PLoS Pathogens, 2013).

Substitutions are numbered along the chain they refer to. Names may count otherwise.

For the assay, the target named is T1, purified YU2 gp120 protein (HIV-1 external envelope glycoprotein) (HIV-1 (strain YU2), UniProt P35961 32-498).
T1 construct: also called HIV-1 envelope glycoprotein gp120; source: purified
Briefly: pull-down. Particulars: both partners purified.

B1: recombinant wild type (WT) XCL1/lymphotactin (ligand, human, UniProt P47992 22-114, looked up)
chain: VGSEVSDKRTCVSLTTQRLPVSRIKTYTITEGSLRAVIFITKRGLKVCADPQATWVRDVVRSMDRKSNTRNNMIQTKPTGTQQSTNTAVTLTG
notes: also called XCL1 WT
As to B1, the binding result is “binds”.

B2: XCL1 W55D, variant that preferentially adopts the all-β, alternatively-folded dimeric structure (ligand, human, UniProt P47992 22-114, looked up)
chain: B1 chain with W55D
For the molecule B2, the binding result was “binds”.
